In patent US20120088313A1 (JAPAN TOBACCO, published 2012):

Target: T1, BioEase tag-fused SITH-1 protein (human herpes virus 6 (HHV-6), biotinylated in vivo (E. coli) within the N-terminal BioEase tag; residue not stated)
T1 construct: Fusion of the BioEase biotinylation tag (N-terminal) with HHV-6 SITH-1, expressed in E. coli BL21 (DE3); Used as a crude extract on blots, or captured on a TM2 plate; also called BioEase-SITH-1 fusion protein; biotinylated SITH-1
T1 chain: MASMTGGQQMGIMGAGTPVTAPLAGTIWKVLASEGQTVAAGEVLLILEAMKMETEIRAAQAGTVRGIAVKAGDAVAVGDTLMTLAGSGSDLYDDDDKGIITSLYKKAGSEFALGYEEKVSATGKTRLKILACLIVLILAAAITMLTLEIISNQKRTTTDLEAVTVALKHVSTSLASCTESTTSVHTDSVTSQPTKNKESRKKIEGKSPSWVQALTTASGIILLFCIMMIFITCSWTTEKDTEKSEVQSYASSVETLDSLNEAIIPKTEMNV
Experiment: capture of crude extract on TM2-coated microplate (binding through biotin)

B1: tamavidin 2 (other)
chain: MSDVQSSLTGTWYNELNSKMELTANKDGTLTGKYLSKVGDVYVPYPLSGRYNLQPPAGQGVALGWAVSWENSKIHSATTWSGQFFSESSPVILTQWLLSSSTARGDVWESTLVGNDSFTKTAPTEQQIAHAQLHCRAPRLK
notes: Purified TM2 immobilized on a New ELISA microplate; also called TM2; purified TM2
**Q.** Does B1 bind?
**A.** binds
